Target: Prostate specific antigen (PSA), purified from human seminal fluid (human) (UniProt P07288)
Assay: gel filtration peak of ~30 kD after thrombin cleavage, GST-peptide IFMA on PSA captured by MAb 5E4

~30 kD component of thrombin-cleaved GST-C-4 (from UniProt P08515 1-218)
Binding activity (% of total), remaining after thrombin-treatment: 5.2%

Reference: US20040106557A1
